Results from publication PMC3312907, “Monoclonal Antibodies to Meningococcal Factor H Binding Protein with Overlapping Epitopes and Discordant Functional Activity” (PLoS ONE, 2012).

Columns and labels:
[1] = target: murine anti-fHbp mAb JAR 1 (IgG3); experiment: ELISA; conditions: mAb at 10 µg/ml (highest point of titration); wells coated with 2 µg/ml of wild-type or mutant fHbp; parent: est. 2.4; read off a plot
[2] = target: murine anti-fHbp mAb JAR 5 (IgG2b); experiment: ELISA; conditions: mAb at 10 µg/ml (highest point of titration); wells coated with 2 µg/ml of wild-type or mutant fHbp; parent: est. 3.7; read off a plot
[3] = target: murine anti-fHbp mAb502 (IgG2a); experiment: ELISA; conditions: wells coated with 2 µg/ml of wild-type or mutant fHbp, read off a plot
[4] = target: recombinant factor H binding protein (fHbp) ID 1 (Neisseria meningitidis (strain MC58)) (UniProt Q9JXV4); experiment: ELISA; competitive inhibition: wells coated with 2 µg/ml fHbp ID 1; dilutions of the first mAb together with 1 µg/ml of the second mAb, 37°C, 2 h; detection with subclass-specific (IgG3 or IgG2a) secondary antibody
[5] = target: T1, fHbp ID 1 on live bacteria of N. meningitidis group B strain H44/76 (Neisseria meningitidis (endogenous in …, UniProt Q9JXV4)); experiment: flow cytometry on cells; as a6, for the anti-fHbp mAb added at 2 or 50 µg/ml for 30 min at room temperature to live bacteria; read-out is bound fH; conditions: one partner purified
T1 construct: source: endogenous, live bacteria of group B strain H44/76

[6] = target: T2, recombinant factor H binding protein (fHbp) ID 1 (Neisseria meningitidis (strain MC58), UniProt Q9JXV4); experiment: ELISA; wells coated with 2 µg/ml recombinant fHbp in PBS overnight at 4°C; dilutions of mAb overnight at 4°C; bound mAb detected with anti-mouse or anti-human IgG (Fc specific)-alkaline phosphatase (legend of Figure 5: anti-human kappa light chain); conditions: both partners purified
T2 construct: also called wild-type (WT) fHbp ID 1; rfHbp; source: E. coli (pET21b), purified (Ni-NTA agarose)

[7] = mAb at 10 µg/ml (highest point of titration), parent: est. 3.6

Molecule	response [1]	response [2]	response [3, 7]	response ([3]; mAb at about 0.08 µg/ml (point read from the log x axis, est.), parent: est. 3.7)	percent inhibition of mAb502 binding to fHbp [4]	binding result [5]	binding result [6]
recombinant factor H binding protein (fHbp) ID 1 (from UniProt Q9JXV4) D142A	2.3 OD 405nm	3.6 OD 405nm	3.5 OD 405nm	1.4 OD 405nm	–	–	–
recombinant factor H binding protein (fHbp) ID 1 (from UniProt Q9JXV4) R204A	0.15 OD 405nm	3.4 OD 405nm	0.3 OD 405nm	–	–	–	–
recombinant factor H binding protein (fHbp) ID 1 (from UniProt Q9JXV4) K143A	1.3 OD 405nm	3.8 OD 405nm	3.6 OD 405nm	–	–	–	–
recombinant factor H binding protein (fHbp) ID 1 (from UniProt Q9JXV4) R204H	2.2 OD 405nm	3.6 OD 405nm	0.3 OD 405nm	–	–	–	–
murine anti-fHbp mAb JAR 1 (IgG3) (antibody)	–	–	–	–	> 90%	–	–
chimeric human IgG1 mouse anti-fHbp JAR 1 mAb (antibody, V domains shown, also called chimeric JAR 1; chimeric human IgG1 JAR 1; source: transfected CHO cells, serum-free medium, purified from supernatant (HiTrap protein G)) VH: QVQLQQPGTELVMPGASVKLSCKASGYTFTNYWMHWVKQRPGQGLEWIGEIDPSDNYTKYNQKFKGKATLTVHTSSTTAYIQLSSLTSEDSAVYYCARGEVTTYLDYWGQGTTLIVSS VL: DILMTQSPSSLTVSAGEKVTMSCKSSQSLLASDNQNNFLAWHQQKPGQSPKMLIIWASTRVSGVPDRFIGSGSGTDFTLTINSVQAEDLAVYYCQQSYSAPLTFGAGTKLELQ	–	–	–	–	–	binds	binds
chimeric human IgG1 mouse anti-fHbp mAb502 (antibody, V domains shown, also called chimeric mAb502; chimeric human IgG1 mAb502; source: transfected CHO cells, serum-free medium, purified from supernatant (HiTrap protein G)) VH: EVQLQESGPGLAKPSQTLSLTCSVTGYSITSDFWNWIRKFPGNKLEYMGYISYSGSTDYNPSLKSRISITRDTSKNQYYLQLNSVTAEDTATYYCARYFGSSYAMDHWGQGTSVTVSS VL: DIQMTQSPASLSASVGETVTITCRASGNIHNYLAWYQQKQGKSPQLLVYTAKTLAEGVPSRFSGSGSGTQFSLKINSLQPEDFGSYYCQHFWSTPWTFGGGTKLEIK	–	–	–	–	–	binds	binds
